Where “and” joins values, the source holds several entries; their conditions need not be identical. Equal entries are not always repeated.
Key:
[1] = molecular target: T1, huntingtin exon 1-thioredoxin (TRX) fusion protein with 39 glutamines (Homo sapiens, UniProt P42858, strain); assay: SEC
[2] = molecular target: T2, huntingtin exon 1-thioredoxin (TRX) fusion protein with 16 glutamines (Homo sapiens, UniProt P42858, strain); assay: small angle X-ray scattering
[3] = molecular target: T2, huntingtin exon 1-thioredoxin (TRX) …; assay: SEC-MALS
[4] = molecular target: T1, huntingtin exon 1-thioredoxin (TRX) …; assay: SEC-MALS

T1 sequence (P42858 whole entry, looked up, change not shown, the tested form may be a part): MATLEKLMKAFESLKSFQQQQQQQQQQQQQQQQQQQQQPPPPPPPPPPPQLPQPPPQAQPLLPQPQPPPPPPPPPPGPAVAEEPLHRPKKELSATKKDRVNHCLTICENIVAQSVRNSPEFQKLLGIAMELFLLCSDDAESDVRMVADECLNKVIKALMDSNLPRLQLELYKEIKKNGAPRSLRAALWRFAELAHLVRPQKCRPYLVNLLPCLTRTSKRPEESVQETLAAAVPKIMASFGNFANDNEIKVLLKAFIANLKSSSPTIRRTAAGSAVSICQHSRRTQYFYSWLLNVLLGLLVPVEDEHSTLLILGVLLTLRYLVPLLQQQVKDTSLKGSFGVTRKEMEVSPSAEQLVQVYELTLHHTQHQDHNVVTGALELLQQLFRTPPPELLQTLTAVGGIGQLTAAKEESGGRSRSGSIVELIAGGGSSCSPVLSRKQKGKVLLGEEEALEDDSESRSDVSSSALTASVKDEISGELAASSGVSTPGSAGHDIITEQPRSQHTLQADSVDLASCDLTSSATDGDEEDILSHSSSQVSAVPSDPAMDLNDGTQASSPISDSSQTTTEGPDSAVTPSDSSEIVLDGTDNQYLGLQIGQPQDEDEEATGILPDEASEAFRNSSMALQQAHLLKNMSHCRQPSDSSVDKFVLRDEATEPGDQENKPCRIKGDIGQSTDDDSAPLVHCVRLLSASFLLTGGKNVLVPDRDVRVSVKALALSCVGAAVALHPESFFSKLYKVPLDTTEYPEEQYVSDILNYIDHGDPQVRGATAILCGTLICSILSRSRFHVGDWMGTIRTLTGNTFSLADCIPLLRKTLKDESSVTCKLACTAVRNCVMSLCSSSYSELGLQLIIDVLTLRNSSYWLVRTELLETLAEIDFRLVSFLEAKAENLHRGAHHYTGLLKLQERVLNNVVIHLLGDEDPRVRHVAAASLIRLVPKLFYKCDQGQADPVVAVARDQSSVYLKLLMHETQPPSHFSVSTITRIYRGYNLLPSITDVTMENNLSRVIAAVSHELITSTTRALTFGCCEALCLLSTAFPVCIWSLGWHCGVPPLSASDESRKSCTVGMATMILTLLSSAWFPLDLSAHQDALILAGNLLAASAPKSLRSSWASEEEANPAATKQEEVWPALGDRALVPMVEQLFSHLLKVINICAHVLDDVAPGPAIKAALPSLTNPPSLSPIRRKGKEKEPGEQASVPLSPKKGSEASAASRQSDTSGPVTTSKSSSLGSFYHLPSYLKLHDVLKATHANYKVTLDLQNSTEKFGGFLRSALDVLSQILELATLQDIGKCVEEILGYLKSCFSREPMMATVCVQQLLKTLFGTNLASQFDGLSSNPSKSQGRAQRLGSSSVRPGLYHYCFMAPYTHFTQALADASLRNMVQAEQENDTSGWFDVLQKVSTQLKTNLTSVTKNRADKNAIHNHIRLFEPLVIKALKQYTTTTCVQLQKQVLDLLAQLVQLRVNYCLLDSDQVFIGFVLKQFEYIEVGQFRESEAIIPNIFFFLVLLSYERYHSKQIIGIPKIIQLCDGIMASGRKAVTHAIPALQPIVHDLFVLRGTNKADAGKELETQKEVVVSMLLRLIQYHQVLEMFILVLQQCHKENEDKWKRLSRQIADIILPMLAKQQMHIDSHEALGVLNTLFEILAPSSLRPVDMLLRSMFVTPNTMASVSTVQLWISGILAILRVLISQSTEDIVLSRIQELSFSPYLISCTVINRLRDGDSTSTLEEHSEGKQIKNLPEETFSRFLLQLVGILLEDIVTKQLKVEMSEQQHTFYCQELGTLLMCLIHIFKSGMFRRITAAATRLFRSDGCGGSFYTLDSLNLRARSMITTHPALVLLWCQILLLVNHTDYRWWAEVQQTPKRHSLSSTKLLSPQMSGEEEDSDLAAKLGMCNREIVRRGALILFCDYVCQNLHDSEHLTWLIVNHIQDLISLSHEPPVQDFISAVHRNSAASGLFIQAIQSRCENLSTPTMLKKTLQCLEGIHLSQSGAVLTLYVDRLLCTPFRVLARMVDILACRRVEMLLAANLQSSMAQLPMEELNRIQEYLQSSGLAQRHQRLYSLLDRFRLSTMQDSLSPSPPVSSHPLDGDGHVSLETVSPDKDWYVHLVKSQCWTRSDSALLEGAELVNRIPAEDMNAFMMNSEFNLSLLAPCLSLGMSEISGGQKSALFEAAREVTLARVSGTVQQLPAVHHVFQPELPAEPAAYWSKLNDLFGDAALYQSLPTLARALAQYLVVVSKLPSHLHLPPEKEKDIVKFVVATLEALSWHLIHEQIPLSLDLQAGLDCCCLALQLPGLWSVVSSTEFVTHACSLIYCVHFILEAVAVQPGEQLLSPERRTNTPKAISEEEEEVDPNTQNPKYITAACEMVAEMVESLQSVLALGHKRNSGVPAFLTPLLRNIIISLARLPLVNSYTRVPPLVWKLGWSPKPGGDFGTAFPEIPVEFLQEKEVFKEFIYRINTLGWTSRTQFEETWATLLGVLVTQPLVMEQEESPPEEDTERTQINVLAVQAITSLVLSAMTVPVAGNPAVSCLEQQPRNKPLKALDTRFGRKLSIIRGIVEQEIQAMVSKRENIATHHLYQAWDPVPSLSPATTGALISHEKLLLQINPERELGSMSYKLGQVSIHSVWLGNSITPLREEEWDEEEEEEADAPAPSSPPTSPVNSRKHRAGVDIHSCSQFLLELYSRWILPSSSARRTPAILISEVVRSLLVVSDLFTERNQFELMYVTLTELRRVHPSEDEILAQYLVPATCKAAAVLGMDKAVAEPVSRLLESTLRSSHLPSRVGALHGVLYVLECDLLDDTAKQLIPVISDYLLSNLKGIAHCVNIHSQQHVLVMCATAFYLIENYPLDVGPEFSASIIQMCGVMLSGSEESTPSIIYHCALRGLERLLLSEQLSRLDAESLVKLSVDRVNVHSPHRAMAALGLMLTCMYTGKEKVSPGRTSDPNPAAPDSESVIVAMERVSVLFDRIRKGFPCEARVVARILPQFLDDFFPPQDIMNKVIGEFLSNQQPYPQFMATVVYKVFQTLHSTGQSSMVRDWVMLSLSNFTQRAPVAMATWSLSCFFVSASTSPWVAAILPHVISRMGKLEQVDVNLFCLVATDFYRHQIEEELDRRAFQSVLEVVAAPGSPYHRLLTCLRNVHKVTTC
T2 sequence (P42858 whole entry, looked up, change not shown, the tested form may be a part): as above

B1: 3B5H10 Fab (Fab, V domains shown)
VH: QIQLVQSGPELKKPGETVKISCKASGYTFTTYGMSWVKQAPGKGFEWMGWINTYSGVPTYVDDFKGRFAFSLETSASTAYLQINNLKNEDTAVYFCARGGDNYLWFAYWGQGTLVTVSA
VL: QLVLTQSSSASFSLGASAKLTCTLNSQHSTYTIEWYQQQPLKPPKYVMELKKDGSHSTGDGIPDRFSGSSSGADRYLSISNIQPEDEAIYICGVGDTIKEQFVYVFGGGTKVTVL
[1]
  N at 5 μM 3B5H10 Fab in the equilibration buffer (ratio with flat baseline): ~2.6 Fab:HD-39Q
  stoichiometry N: 3 Fab:HD-39Q
[2]
  stoichiometry N: 1 Fab:HD-16Q
[3]
  stoichiometry N: 1 3B5H10 Fab:HD-16Q
[4]
  stoichiometry N: > 1 3B5H10 Fab:HD-39Q and < 2 3B5H10 Fab:HD-39Q

— PMC4520773 (Journal of molecular biology, 2015)
